Test results reported in PMC12756740, “A GH42 β‑Galactosidase from the Human Isolate Bifidobacterium breve DSM 20213: Biochemical and Transgalactosylation Properties Reveal the Potential for Galacto-oligosaccharides Synthesis” (ACS Omega, 2025).

Substrate: O=[N+]([O-])c1ccccc1O[C@@H]1O[C@H](CO)[C@H](O)[C@H](O)[C@H]1O
Assay: purified protein
Type: biochemical, Bifidobacterium breve
Conditions: 50 mM sodium phosphate pH 6.5, 30 °C, 0.01-22 mM oNPG

B1: Bbreβgal-III (Bifidobacterium breve DSM 20213 = JCM 1192) (protein)
chain: MEHREFKWPQPLAGGKPRIWYGGDYNPDQWPEEVWDEDVALMQKAGVNLVSVAIFSWAKLEPEEGVYDFDWLDRVIDKLGKAGIAVDLASGTASPPMWMTQAHPEILWVDYRGDVCQPGARQHWRATSPVFLDYALNLCRKMAEHYKDNPYVVSWHVSNEYGCHNRFDYSEDAERAFQKWCEKKYGTIDAVNDAWGTAFWAQRMNNFSEIIPPRFIGDGNFMNPGKLLDWKRFSSDALLDFYKAERDALLEIAPKPQTTNFMVSAGGAGIDYDKWGYDVDFVSNDHYFTPGEAHFDELAYSASLCDGIARKNPWFLMEHSSSAVNWRPINYRVEPGELVRDSLAHLAMGSDAICYFQWRQSKAGAEKWHSSMVPHAGPDSQIFRDVCELGADLNKLADEGLLSTKLVKSKVAVVFDYESQWATEHTATPTQEVRHWTEPLAWFRALADNGLTADVVPVRGPWDEYEAVVLPSLTILSEETTRRVREYVANGGKLFVTYYTGLVDDKDHVWLGGYPGSIRDVVGVRVEEFAPMGNDFPGAIDHLDLDNGTVAHDFADVITSVADTAHVVAAFKADKWTGFDGAPAITVNDFGDGKAAYIGARLGREGLAKSLPALLEELGIETSAEDDRGEVLRVERADETGENHFVFLFNRTHDVAIVDVDGEPLVASLAQVNESEHTAAIQPNGVLVVKL
notes: pET21a(+) NdeI/NotI, His-tagged, E. coli BL21 Star (DE3), IMAC purified
B1 showed a Km of 1570 ± 160 µM, a Vmax of 3650 µmol/min/mg and a kcat of 4690 ± 260 s⁻¹. It also gave a kcat/Km of 2.99e+06 ± 140000 M⁻¹ s⁻¹.
